# Measured values from patent publication US20220017863.
# T1: malate dehydrogenase, P08249
# T1 chain: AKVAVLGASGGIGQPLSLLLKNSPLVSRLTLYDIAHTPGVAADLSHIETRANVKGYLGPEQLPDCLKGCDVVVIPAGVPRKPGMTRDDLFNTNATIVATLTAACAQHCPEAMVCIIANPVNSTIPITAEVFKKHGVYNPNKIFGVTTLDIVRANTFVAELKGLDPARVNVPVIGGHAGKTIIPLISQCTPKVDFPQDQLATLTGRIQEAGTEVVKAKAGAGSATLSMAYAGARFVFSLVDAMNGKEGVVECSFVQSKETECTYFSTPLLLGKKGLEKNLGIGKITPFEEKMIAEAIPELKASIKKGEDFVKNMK
# T2: Hydroxyacyl-CoA Dehydrogenase Trifunctional Multienzyme Complex Subunit Beta (HADHB), Q99JY0
# T2 chain: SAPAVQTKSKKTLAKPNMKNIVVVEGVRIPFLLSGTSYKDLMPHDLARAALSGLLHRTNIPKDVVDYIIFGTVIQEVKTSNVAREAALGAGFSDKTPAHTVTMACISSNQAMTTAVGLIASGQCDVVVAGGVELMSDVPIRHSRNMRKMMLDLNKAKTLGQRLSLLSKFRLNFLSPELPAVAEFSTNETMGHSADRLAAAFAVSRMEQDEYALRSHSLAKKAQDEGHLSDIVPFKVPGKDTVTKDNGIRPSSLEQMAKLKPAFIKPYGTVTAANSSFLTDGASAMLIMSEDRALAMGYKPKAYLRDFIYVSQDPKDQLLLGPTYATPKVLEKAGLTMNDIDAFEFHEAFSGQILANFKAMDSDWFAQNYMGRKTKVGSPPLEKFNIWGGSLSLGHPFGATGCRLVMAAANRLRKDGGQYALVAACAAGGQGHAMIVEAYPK
# T3: aconitase 2 (ACO2), Q99KI0
# T3 chain: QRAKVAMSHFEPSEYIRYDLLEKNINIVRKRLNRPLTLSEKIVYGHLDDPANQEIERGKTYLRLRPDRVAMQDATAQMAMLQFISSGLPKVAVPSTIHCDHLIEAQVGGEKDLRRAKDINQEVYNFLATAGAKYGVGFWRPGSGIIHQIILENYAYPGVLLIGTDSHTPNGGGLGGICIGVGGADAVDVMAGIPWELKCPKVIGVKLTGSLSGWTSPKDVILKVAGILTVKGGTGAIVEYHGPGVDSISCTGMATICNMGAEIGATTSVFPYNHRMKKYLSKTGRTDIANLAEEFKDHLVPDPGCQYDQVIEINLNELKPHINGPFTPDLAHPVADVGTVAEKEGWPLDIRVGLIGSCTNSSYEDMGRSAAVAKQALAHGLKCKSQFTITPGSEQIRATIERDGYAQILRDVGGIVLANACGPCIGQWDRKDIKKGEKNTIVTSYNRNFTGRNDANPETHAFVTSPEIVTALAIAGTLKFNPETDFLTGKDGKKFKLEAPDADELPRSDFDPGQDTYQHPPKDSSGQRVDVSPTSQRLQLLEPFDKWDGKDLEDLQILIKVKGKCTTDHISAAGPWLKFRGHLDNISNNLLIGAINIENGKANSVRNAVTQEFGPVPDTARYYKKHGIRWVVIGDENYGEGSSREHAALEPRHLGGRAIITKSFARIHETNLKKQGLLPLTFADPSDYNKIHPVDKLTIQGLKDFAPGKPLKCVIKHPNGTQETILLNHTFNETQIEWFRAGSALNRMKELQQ
# T4: phosphoglycerate kinase 1 (PGK1), P09411
# T4 chain: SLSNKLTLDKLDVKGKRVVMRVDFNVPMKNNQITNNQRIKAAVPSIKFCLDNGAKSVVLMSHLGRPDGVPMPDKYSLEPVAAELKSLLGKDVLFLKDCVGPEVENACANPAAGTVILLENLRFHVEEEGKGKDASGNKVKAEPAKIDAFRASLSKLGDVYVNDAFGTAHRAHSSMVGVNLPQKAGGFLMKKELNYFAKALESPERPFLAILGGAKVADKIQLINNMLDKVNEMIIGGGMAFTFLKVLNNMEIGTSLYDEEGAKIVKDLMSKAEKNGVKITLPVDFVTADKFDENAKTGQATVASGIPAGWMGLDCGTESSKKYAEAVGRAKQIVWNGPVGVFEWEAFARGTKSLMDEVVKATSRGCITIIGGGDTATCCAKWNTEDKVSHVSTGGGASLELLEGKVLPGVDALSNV
# T5: glutaminase (GLS), D3Z7P3
# T5 chain: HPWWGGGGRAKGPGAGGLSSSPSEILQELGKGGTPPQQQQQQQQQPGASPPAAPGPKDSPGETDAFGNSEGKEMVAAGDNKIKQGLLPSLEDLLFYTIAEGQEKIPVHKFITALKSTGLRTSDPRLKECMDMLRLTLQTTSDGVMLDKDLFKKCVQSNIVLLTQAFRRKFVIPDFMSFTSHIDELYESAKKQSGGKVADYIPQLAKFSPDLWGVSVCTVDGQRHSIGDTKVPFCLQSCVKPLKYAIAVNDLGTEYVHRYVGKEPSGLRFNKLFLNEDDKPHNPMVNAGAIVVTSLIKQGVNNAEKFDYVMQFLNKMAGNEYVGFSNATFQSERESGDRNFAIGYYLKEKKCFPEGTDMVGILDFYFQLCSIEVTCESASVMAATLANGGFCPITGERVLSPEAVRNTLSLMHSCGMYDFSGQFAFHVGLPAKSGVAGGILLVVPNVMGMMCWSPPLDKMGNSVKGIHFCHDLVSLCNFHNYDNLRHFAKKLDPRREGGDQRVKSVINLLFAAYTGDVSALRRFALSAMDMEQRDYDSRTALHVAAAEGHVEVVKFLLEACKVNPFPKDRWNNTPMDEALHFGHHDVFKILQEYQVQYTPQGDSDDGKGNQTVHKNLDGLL
# T6: isocitrate dehydrogenase, P54071
# T6 chain: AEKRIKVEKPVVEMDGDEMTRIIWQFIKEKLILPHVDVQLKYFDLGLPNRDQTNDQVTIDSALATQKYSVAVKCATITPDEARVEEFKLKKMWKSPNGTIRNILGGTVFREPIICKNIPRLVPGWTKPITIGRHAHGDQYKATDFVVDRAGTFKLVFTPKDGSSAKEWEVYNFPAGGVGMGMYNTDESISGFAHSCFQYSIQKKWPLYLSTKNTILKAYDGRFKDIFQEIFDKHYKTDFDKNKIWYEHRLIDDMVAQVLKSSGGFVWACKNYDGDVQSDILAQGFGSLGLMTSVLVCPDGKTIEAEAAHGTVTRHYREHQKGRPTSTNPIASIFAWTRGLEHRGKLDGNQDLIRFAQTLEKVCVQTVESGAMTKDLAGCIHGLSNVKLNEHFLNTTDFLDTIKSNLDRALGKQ
# T7: aldolase A (ALDOA), P05064
# T7 chain: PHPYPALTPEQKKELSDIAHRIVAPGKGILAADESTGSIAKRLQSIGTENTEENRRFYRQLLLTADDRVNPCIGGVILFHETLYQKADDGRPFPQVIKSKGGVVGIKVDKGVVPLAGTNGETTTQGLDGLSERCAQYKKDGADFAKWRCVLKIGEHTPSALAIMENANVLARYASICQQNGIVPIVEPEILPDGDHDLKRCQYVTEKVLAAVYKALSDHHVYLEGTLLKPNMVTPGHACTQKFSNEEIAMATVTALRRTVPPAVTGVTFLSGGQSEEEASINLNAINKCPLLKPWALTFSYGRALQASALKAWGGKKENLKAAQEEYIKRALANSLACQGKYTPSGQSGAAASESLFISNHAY
# T8: enolase 1 (ENO1), P17182
# T8 chain: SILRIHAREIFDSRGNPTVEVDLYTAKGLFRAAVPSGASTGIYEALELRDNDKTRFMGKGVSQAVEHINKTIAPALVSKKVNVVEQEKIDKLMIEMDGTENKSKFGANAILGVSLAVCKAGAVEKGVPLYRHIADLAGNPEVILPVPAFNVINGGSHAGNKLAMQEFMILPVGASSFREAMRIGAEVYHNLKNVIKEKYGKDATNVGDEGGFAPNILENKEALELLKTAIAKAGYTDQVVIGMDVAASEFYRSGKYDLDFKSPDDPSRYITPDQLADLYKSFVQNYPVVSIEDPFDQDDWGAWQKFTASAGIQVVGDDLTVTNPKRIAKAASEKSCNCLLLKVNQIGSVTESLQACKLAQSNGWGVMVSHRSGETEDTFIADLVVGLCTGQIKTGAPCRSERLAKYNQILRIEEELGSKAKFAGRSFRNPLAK
# Key:
# [1] = target: T1, malate dehydrogenase, P08249
# [2] = target: lactate dehydrogenase (LDH), P06151
# [3] = target: T2, Hydroxyacyl-CoA Dehydrogenase …
# [4] = target: pyruvate kinase M (PKM), P52480
# [5] = target: succinate dehydrogenase subunit alpha (SDHA), Q8K2B3
# [6] = target: T3, aconitase 2 (ACO2), Q99KI0
# [7] = target: T4, phosphoglycerate kinase 1 (PGK1), P09411
# [8] = target: T5, glutaminase (GLS), D3Z7P3
# [9] = target: T6, isocitrate dehydrogenase, P54071
# [10] = target: glutamate dehydrogenase (GDH), P26443
# [11] = target: T7, aldolase A (ALDOA), P05064
# [12] = target: glyceraldehyde-3-phosphate dehydrogenase (GAPDH), P16858
# [13] = target: T8, enolase 1 (ENO1), P17182
# [14] = target: succinate-CoA ligase alpha subunit (SUCLG1), Q9WUM5
# Sequence of succinate-CoA ligase alpha subunit (SUCLG1), Q9WUM5 (Q9WUM5 35-346): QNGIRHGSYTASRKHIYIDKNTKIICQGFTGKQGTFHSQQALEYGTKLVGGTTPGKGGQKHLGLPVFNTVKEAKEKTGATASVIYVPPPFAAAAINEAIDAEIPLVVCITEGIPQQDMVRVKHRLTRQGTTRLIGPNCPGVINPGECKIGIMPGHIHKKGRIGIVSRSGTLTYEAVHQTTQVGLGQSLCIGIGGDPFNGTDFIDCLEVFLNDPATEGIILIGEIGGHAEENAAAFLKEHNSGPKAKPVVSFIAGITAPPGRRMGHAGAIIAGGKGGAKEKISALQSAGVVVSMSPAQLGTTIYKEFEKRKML
# Sequence of glyceraldehyde-3-phosphate dehydrogenase (GAPDH), P16858 (P16858 whole entry): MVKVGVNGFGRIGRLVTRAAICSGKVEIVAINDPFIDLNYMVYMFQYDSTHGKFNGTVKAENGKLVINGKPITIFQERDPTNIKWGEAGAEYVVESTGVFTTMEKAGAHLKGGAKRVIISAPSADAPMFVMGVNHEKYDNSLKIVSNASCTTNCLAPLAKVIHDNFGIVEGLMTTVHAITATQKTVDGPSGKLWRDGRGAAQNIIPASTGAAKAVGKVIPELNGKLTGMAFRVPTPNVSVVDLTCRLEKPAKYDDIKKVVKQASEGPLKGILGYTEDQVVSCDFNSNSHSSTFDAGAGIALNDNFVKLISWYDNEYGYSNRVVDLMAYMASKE
# Sequence of pyruvate kinase M (PKM), P52480 (P52480 whole entry): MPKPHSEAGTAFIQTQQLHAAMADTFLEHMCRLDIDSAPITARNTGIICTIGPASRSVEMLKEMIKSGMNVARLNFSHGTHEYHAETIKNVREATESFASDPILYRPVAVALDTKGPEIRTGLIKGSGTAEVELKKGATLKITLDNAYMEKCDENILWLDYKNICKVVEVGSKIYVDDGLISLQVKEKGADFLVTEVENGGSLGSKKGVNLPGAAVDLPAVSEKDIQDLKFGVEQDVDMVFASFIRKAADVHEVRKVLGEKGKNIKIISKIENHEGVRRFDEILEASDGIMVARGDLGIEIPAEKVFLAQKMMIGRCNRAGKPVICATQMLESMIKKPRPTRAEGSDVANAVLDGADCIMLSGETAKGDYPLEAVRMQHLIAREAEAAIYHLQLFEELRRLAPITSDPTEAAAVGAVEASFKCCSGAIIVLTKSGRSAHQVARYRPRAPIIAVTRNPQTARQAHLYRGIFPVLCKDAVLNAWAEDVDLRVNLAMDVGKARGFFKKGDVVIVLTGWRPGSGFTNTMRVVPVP
# Sequence of glutamate dehydrogenase (GDH), P26443 (P26443 54-558): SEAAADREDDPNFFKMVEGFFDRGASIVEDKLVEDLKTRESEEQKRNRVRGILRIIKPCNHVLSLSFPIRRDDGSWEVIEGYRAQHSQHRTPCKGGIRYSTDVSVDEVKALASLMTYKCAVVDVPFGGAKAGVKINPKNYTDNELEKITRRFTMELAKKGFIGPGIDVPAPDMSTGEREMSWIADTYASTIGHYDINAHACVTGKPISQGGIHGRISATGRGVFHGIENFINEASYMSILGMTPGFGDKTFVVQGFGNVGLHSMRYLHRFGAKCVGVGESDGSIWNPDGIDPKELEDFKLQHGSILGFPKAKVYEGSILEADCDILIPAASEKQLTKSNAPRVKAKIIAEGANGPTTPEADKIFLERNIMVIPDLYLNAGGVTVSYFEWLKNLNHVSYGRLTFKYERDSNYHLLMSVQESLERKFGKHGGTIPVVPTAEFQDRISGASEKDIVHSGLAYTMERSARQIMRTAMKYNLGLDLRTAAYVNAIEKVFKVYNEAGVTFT
# Sequence of succinate dehydrogenase subunit alpha (SDHA), Q8K2B3 (Q8K2B3 43-664): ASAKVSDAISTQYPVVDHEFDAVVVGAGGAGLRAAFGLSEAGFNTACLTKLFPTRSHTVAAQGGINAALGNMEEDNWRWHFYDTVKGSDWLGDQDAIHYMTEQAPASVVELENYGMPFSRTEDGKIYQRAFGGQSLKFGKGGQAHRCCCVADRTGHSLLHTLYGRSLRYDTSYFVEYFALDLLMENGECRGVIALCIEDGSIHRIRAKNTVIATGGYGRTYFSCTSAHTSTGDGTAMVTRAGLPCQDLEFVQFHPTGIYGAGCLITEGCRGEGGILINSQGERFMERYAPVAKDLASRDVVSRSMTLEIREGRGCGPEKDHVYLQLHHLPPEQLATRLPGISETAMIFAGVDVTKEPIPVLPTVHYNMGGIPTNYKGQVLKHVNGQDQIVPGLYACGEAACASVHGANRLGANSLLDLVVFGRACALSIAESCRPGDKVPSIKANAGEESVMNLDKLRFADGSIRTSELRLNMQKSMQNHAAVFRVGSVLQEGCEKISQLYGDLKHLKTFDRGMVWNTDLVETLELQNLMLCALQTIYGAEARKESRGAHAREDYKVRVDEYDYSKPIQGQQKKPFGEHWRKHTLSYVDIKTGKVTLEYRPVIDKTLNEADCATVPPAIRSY
protein,measurement,setting,value
Sirt2 (protein) AEPDPSDPLETQAGKVQEAQDSDSDTEGGATGGEAEMDFLRNLFTQTLGLGSQKERLLDELTLEGVTRYMQSERCRKVICLVGAGISTSAGIPDFRSPSTGLYANLEKYHLPYPEAIFEISYFKKHPEPFFALAKELYPGQFKPTICHYFIRLLKEKGLLLRCYTQNIDTLERVAGLEPQDLVEAHGTFYTSHCVNTSCRKEYTMGWMKEKIFSEATPRCEQCQSVVKPDIVFFGENLPSRFFSCMQSDFSKVDLLIIMGTSLQVQPFASLISKAPLATPRLLINKEKTGQTDPFLGMMMGLGGGMDFDSKKAYRDVAWLGDCDQGCLALADLLGWKKELEDLVRREHANIDAQSGSQAPNPSTTISPGKSPPPAKEAARTKEKEEQQ,"acetylated peptide intensity (acetyl-lysine IP, LC-MS/MS, EIC)",[1],peptide ETECTYFSTPLLLGKK (SEQ ID NO:11) from malate dehydrogenase ... acetylation site K296 ... increased acetylation intensity in Sirt2^-/- sample versus WT
same,"acetylated peptide intensity (acetyl-lysine IP, LC-MS/MS, EIC)",[2],peptide FIIPNIVKYSPHCK (SEQ ID NO:3) from lactate dehydrogenase ... acetylation site K126 ... increased acetylation intensity in Sirt2^-/- sample versus WT
same,"acetylated peptide intensity (acetyl-lysine IP, LC-MS/MS, EIC)",[3],peptide GQQQVFKGLNDK (SEQ ID NO:12) from HADHB ... acetylation site K406 ... increased acetylation intensity in Sirt2^-/- sample versus WT
same,"acetylated peptide intensity (acetyl-lysine IP, LC-MS/MS, EIC)",[4],peptide CCSGAIIVLTKSGR (SEQ ID NO:6) from pyruvate kinase M ... acetylation site K433 ... increased acetylation intensity in Sirt2^-/- sample versus WT
same,"acetylated peptide intensity (acetyl-lysine IP, LC-MS/MS, EIC)",[5],peptide ISQLYGDLKHLK (SEQ ID NO:10) from Succinate Dehydrogenase Subunit Alpha ... acetylation site K544 ... increased acetylation intensity in Sirt2^-/- sample versus WT
same,"acetylated peptide intensity (acetyl-lysine IP, LC-MS/MS, EIC)",[6],peptide NFTGRNDANPETHAFVTSPEIVTALAIAGTLKFNPETDFLTGKDGK (SEQ ID NO:7) from aconitase 2 ... acetylation site K506 ... increased acetylation intensity in Sirt2^-/- sample versus WT
same,"acetylated peptide intensity (acetyl-lysine IP, LC-MS/MS, EIC)",[7],peptide SVVLMSHLGRPDGVPMPDKYSLEPVAAELK (SEQ ID NO:4) from phosphoglycerate kinase 1 ... acetylation site K75 ... increased acetylation intensity in Sirt2^-/- sample versus WT
same,"acetylated peptide intensity (acetyl-lysine IP, LC-MS/MS, EIC)",[8],peptide FITALKSTG (SEQ ID NO:13) from GLS ... acetylation site K169 ... increased acetylation intensity in Sirt2^-/- sample versus WT
same,"acetylated peptide intensity (acetyl-lysine IP, LC-MS/MS, EIC)",[9],peptide NILGGTVFREPIICKNIPR (SEQ ID NO:8) from isocitrate dehydrogenase ... acetylation site K155 ... increased acetylation intensity in Sirt2^-/- sample versus WT
same,"acetylated peptide intensity (acetyl-lysine IP, LC-MS/MS, EIC)",[10],peptide LTFKYER (SEQ ID NO:14) from GDH ... acetylation site K457 ... increased acetylation intensity in Sirt2^-/- sample versus WT
same,"acetylated peptide intensity (acetyl-lysine IP, LC-MS/MS, EIC)",[11],peptide GILAADESTGSIAKR (SEQ ID NO:1) from aldolase A ... acetylation site K42 ... increased acetylation intensity in Sirt2^-/- sample versus WT
same,"acetylated peptide intensity (acetyl-lysine IP, LC-MS/MS, EIC)",[12],peptide WGEAGAEYVVESTGVFTTMEKAGAHLK (SEQ ID NO:5) from glyceraldehyde-3-phosphate dehydrogenase ... acetylation site K105 ... increased acetylation intensity in Sirt2^-/- sample versus WT
same,"acetylated peptide intensity (acetyl-lysine IP, LC-MS/MS, EIC)",[13],peptide SCNCLLLKVNQIGSVTESLQACK (SEQ ID NO:2) from enolase 1 ... acetylation site K343 ... increased acetylation intensity in Sirt2^-/- sample versus WT
same,"acetylated peptide intensity (acetyl-lysine IP, LC-MS/MS, EIC)",[14],peptide SSDEAYAIAKK (SEQ ID NO:9) from Succinyl-CoA Ligase ... acetylation site K125 ... increased acetylation intensity in Sirt2^-/- sample versus WT
